Changes are numbered by the printed parent chain. Like-named read-outs stand apart in the source and are kept apart here.

Assay [1] concerns the target human CD3 epsilon/delta heterodimer, Fc-tagged (human). The assay can be described thus: SPR, 25C antigen-capture. For orientation: In SPR one partner is held on a chip, and binding of the other changes the refractive index at the surface.
The target is the same in assay [2]. The assay can be described thus: SPR, 25C antibody-capture.
Assay [3] has as its target human CD3 on Jurkat cells (human). The experiment in a line: FACS. On the technique in general: Flow cytometry measures light scatter and fluorescence of single cells or particles in a stream.
Assay [4] addresses T1, cynomolgus CD3 on T cells (cynomolgus monkey).
T1 chain: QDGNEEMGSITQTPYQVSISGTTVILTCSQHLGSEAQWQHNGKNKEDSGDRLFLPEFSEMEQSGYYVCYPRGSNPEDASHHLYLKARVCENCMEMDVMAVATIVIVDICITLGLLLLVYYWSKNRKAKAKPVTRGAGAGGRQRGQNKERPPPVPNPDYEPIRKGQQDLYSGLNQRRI
The experiment in a line: FACS.

Assay [5] deals with human CD3 epsilon/delta heterodimer, Fc-tagged (human). The assay can be described thus: SPR, 37C.
Assay [6] concerns the target human CD3 on Jurkat cells (human). The experiment in a line: FACS. The source holds these as a separate data set.
Assay [7] has as its target human PSMA, N-terminal 6xHis (soluble) (human). The assay can be described thus: SPR, 37C.
The target of assay [8] is human CD3 on Jurkat cells (human). The assay can be described thus: FACS. The source holds these as a separate data set.
Assay [9] addresses human CD3 epsilon/delta heterodimer, Fc-tagged (human). The assay can be described thus: SPR, 25C antibody-capture. This is another data set of the same source.
Assay [10] deals with human CD3 on Jurkat cells (human). The experiment in a line: FACS. The source holds these as a separate data set.
Assay [11] has as its target human CD3 epsilon/delta heterodimer, Fc-tagged (human). The assay can be described thus: SPR, 25C antibody-capture. The source holds these as a separate data set.
Assay [12] shares this target. The experiment in a line: SPR, 25C antibody-capture. The source holds these as a separate data set.

Chain of human CD3 on Jurkat cells (human) (chain, as listed by the source, chain 1 of 2): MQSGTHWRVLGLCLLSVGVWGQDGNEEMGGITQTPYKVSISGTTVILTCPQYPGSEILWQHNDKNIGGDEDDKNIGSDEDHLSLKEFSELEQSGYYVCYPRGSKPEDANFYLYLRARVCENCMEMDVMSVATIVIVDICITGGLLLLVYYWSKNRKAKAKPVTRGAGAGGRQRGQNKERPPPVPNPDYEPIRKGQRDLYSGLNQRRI
Chain of human CD3 on Jurkat cells (human) (chain, as listed by the source, chain 2 of 2): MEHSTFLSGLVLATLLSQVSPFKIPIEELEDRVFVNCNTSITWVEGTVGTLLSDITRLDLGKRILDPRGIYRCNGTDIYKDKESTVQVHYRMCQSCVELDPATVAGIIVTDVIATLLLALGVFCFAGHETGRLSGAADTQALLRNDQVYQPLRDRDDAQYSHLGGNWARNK
Chain of human CD3 epsilon/delta heterodimer, Fc-tagged (human) (chain, as listed by the source mutant, chain 1 of 2): as the sequence (chain, as listed by the source, chain 1 of 2) above
Chain of human CD3 epsilon/delta heterodimer, Fc-tagged (human) (chain, as listed by the source mutant, chain 2 of 2): as the sequence (chain, as listed by the source, chain 2 of 2) above
Chain of human PSMA, N-terminal 6xHis (soluble) (human) (A4UU12 whole entry): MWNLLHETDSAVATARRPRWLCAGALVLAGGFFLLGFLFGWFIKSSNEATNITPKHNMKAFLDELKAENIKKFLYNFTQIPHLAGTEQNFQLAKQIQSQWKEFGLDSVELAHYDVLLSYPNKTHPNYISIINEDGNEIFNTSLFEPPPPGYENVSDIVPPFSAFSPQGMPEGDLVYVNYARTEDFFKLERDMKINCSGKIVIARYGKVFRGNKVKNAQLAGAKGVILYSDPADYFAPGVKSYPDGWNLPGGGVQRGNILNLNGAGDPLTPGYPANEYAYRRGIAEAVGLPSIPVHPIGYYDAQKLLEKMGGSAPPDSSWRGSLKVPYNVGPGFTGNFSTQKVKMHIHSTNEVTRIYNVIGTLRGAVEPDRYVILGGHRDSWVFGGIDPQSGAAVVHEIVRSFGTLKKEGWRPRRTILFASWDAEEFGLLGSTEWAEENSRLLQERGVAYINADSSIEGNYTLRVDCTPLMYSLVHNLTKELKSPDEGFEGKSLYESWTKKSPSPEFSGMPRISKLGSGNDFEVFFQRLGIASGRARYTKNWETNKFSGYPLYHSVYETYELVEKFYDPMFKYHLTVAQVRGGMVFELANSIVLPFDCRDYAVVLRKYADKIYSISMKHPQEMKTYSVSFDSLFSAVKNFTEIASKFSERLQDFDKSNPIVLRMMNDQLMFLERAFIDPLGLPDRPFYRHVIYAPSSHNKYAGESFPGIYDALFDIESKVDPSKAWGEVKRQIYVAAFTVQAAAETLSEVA

B1: H2M2776N (antibody)
chain 1: QVQLVESGGGVVQPGRSLRLSCAASGFTFRSFGMHWVRQAPGRGLEWVAMIYFDGKNKYYADSVRGRFTISRDNSKNTLYLEMSSLRAEDTAVYFCARGPGYNWLDPWGQGTLVTVSS
chain 2: EIVMTQSPATLSVSPGERVILSCRASQSISRNLAWYQXKPGQAPRLLIYGATTRATGVPARFSGSGSGTEFTLTISSLQSEDFAVFYCQQYNNRPLTFGGGTEVEIK
modifications: not fully specified; listing feature
Turning to B1, binding in assay [1] was put at a Kd of 0.14 nM.

B2: H1xH7221G3 (antibody, V domains shown)
VH: EVQLVESGGGLVQPGRSLRLSCAASGFTFDDYSMHWVRQAPGKGLEWVSGISWNSGSIGYADSVKGRFTISRDNAKNSLYLQMNSLRAEDTALYYCAKDGSGYGYFYYYGMDVWGQGTTVTVSS
VL: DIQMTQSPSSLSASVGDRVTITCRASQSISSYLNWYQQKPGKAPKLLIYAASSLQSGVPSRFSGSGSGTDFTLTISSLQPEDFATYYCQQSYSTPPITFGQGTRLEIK
With B2, the binding result in assay [2] was “no binding”.

B3: BSPSMA/CD3-300 CD3 arm (antibody, V domains shown)
VH: B2 VH
VL: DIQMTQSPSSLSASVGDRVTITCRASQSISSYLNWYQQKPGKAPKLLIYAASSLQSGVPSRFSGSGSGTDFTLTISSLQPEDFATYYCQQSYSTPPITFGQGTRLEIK
With B3, the binding result in assay [3], in assay [4] and in assay [5] was “no binding” in each case.

B4: H1xH7221G5 (antibody, V domains shown)
VH: B2 VH with Y105K
VL: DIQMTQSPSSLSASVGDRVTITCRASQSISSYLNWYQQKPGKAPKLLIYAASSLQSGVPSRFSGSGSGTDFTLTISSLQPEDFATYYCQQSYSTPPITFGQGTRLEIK
With B4, the binding result in [2] is on record as “no binding”.

B5: BSPSMA/CD3-200 CD3 arm (antibody, V domains shown)
VH: B2 VH with S33A
VL: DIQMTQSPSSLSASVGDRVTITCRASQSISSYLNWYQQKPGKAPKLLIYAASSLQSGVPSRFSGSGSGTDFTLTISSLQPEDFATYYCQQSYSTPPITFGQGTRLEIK
As for B5, the binding result in assay [3], in [4] and in assay [5] was “no binding” in each case.

B6: BSPSMA/CD3-400 CD3 arm (antibody, V domains shown)
VH: B2 VH with S33A, Y105K
VL: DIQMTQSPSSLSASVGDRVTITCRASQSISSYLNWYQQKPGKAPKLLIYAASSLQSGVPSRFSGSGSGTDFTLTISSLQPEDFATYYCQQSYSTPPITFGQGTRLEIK
Turning to B6, the binding result in assay [3], in [4] and in assay [5] was “no binding” each time.

B7: H1H7221P (antibody, V domains shown)
VH: B2 VH with A23V, I58K, G59D, D99Y, Y105K, Y108H, M111L
VL: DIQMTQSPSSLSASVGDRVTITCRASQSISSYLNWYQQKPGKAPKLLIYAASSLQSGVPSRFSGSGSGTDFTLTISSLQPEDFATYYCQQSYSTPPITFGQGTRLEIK
Turning to B7, in assay [6], the midpoint of the response, the EC50, lay at 1.4 nM.

B8: H1M11453N (antibody, V domains shown)
VH: EFQVVESGGGLVKPGGSLRLSCVVSGFTFSNYNMNWVRQAPAKGLEWVSSISTGSSDIYYADSVKGRFTISRDNAKNSLYLQMNSLRVEDTAVYYCARDIIGTTRDWGQGTLVTVSS
VL: DIQMTQSPSSLSASVGDSVTITCRASQSINNYLNWYQQKPGKAPKLLIYTASSLLSGVPSRFSGSGSGTDFTLTISGLHPEDFATYFCQQSFSTPPITFGQGTRLDIK
In the case of B8, the affinity in assay [7], expressed as Kd, was 1.93 nM.

B9: H2M11899N (antibody, V domains shown)
VH: QVQLVESGGGVVQPGRSLRLSCAASGFTFSSYDIHWVRQAPGKGLEWVSVIWYDGSNKYYADSVKGRFTISRDNSKNTLYLQMNSLRAEDTAVYYCARTVAARNYDYYVMDVWGQGTTVTVSS
VL: B8 VL
With B9, the Kd (commonly the concentration at which binding is half-saturated) in assay [7] stood at 1.76 nM.

B10: H1H5785B (antibody, V domains shown)
VH: QVQLVESGGGVVQPGRSLRLSCAASGLTFSTYVMHWVRQAPGKGLAWVAVIANDGSNKYYADSVKGRFTISRDNSKNTLYLQMNSLRPEDTAVYFCAKEGGTSGSYYYYGMDVWGQGTTVTVSS
VL: DIQMTQSPDSLAVSLGERATINCKSSQSLLFNSINKNYLAWYQQKPGQPPKLLLYWASTRESGIPDRFSGSGSGTDFTLTITSLQAEDVALYYCQQYYSIPWTFGQGTKVEIKR
In the case of B10, the binding result in [8] was “no binding”.

B11: H1H7258P (antibody, V domains shown)
VH: QVQLVESGGGLVQPGRSLRLSCAASGFTFDDYTMHWVRQGPGKGLEWVSDIGWNSNTIGYADSVKGRFTISRDNARNSLYLQMNSLRPEDTALYYCVKDKSGYGKFQYGLDVWGQGTTVTVSS
VL: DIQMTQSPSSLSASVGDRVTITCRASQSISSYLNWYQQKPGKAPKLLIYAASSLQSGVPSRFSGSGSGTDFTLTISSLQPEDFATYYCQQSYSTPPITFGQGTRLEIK
B11 showed a Kd in assay [9] of 24 nM.

B12: H1H7241P (antibody, V domains shown)
VH: B11 VH with Q1E, D30A, T69A, R76K
VL: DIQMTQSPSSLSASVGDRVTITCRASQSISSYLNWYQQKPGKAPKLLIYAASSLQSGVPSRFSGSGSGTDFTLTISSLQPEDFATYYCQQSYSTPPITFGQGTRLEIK
In [9], B12 came in with a Kd of 22 nM.

B13: H2M3547N (antibody, V domains shown)
VH: EAQLVESGGGLVQPGRSLRLSCTTSGFTFDDYTMHWVRQAPGKGLEWISDISWNGGTKGYADSVKGRFTISRDNAKNSLYLQMDSLRGEDTALYYCVKDKSGYGHFYFGLDVWGQGTTVTVSS
VL: DIQMTQSPSSLTASVGDRVTFTCRASQSISRHLSWYQQKPGKAPKLLIYAASSLESGVPSRFSGSGSGTDFTLTISSLHPEDFATYYCQQSYSNPPITFGQGTRLEIK
In the case of B13, in assay [1], binding was put at a Kd of 0.0215 nM.

B14: H2M2705N (antibody, V domains shown)
VH: QVQLVESGGGVVQPGRSLRLACVASGFTFRSYGMHWVRQAPGKGLQWVAMIYYDGKNKYYADSVRGRFTISRDNSKNTLYLQMNNLRVEDTAMYFCARGPGYNWLDPWGQGTLVTVSS
VL: EIVMTQSPATLSVSPGERATLSCRASQRISSNLAWYQQKPGQAPRLLIYGASTRATGSPARFSGSGSGTDFTLTISSLQSEDVAVYYCQQHHNWPLTFGGGTKVEIK
With B14, the midpoint of the response in assay [10], the EC50, lay at 0.296 nM. Also, the Kd in assay [1] worked out at 0.14 nM; in [11] it was 13.7 nM.

B15: H1H5753B (antibody, V domains shown)
VH: QVQLVESGGGLVQPGGSLRLSCAASYFTFSSFAMNWVRQAPGQGLEWVSAISGRVSAISGSGGITYYADSVKGRFIISRDNSKNTLYLQMSGLRAEDTAVYYCAKGPYLTTVTPFDYWGQGTLVTVSS
VL: DIQLTQSPSSVSASVGDRVTITCRASQGISSWLAWYQQKPGKAPKLLIYAVSSLQNGVPSRFSGSGSGTDFTLTISSLQPEDFATYYCQQANSFPFTFGPGTKLEIKR
Regarding B15, the binding result in assay [8] is recorded as “no binding”.

B16: H1H5756B (antibody, V domains shown)
VH: EVQLVESGGGVVQPGRSLRLSCTASGFPFSRYGMHWVRQAPGKGLEWVTFIWYDGSNKYYADSAKGRFTITRDNSKNTVYLQMDSLRADDTAVYYCVRDQAALYYFDSWGQGTLVTVSS
VL: B15 VL with L4M, S31R, Y49S, V51A, N56S, S77G, Q90K
On to B16, for which, in assay [8], the binding result is “no binding”.

B17: H1H7194P (antibody, V domains shown)
VH: EVQLVESGGGLVQPGRSLRLSCAASGFTFGDYTMHWVRQAPGKGLEWVSDISWNSGSKDYADSVKGRFTISRDNAKNSLYLQMNSLRTEDTAFYYCAKDSRGYGLYYHLGLDVWGQGTTVTVSS
VL: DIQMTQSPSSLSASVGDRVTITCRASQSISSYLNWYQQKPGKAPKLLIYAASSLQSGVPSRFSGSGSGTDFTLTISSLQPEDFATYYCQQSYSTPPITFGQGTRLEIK
Take B17: in assay [6], the EC50 (in general, the midpoint of the concentration-response curve) was 1.5 nM. In assay [9], this molecule returned a Kd of 13 nM.

B18: H1H5782P (antibody, V domains shown)
VH: EVQLVESGGGLVQPGRSLRLSCAASGFTFDDYAMHWVRQAPGKGLEWVSGISWNSGSKDYADSVKGRFTISRDNTRNSLFLQMNSLRTEDTALYYCAKDKSGYGSFYYGMDVWGQGTTVTVSS
VL: not shown
As to B18, the binding result in assay [8] and in assay [12] was “no binding” each time.

B19: H1H5752P (antibody, V domains shown)
VH: QVQLVESGGGVVQPGRSLRPSCAASGFSFRDYGMHWVRQAPGKGLEWMAHIWYNGKNKYYADSVKGRFTISRDNSKNTLYLQMNSLRPEDTAVYYCARDGVSARGTPFDYWGQGTLVTVSS
VL: ETTLTQSPAFMSAAPGDKVSISCIASQYIDDDVNWYQQKPGETAIFIIQEASTLVPGISPRFSGSGYGTHFTLTINNIDSEDAAFYFCLQHDNFPYTFGQGTKLEIK
Consider B19, for which, in assay [12], the binding result is on record as “no binding”.

Source of the values: patent publication US20210403595 (published 2021).
